Test results taken from patent US20210070829A1 (ZHEJIANG DOER BIOLOGICS, published 2021).
Like-named read-outs stand apart in the source and are kept apart here.

Experiments:
Assay in all cases: cell-based or functional assay
human GLP-1 receptor [1] = molecular target: T1, human GLP-1 receptor (human, UniProt P43220 24-463)
Glucagon receptor [2] = molecular target: Glucagon receptor
[3] = molecular target: FGFR/β-Klotho receptor complex
human GLP-1 receptor [4] = molecular target: T1, human GLP-1 receptor; remark: listed apart in the source
Glucagon receptor [5] = molecular target: Glucagon receptor; remark: listed apart in the source

Row | Binder | GLP-1R agonist activity EC50 (luciferase reporter) (human GLP-1 receptor [1]) | GCGR agonist activity EC50 (luciferase reporter) (Glucagon receptor [2]) | FGF21 activity EC50 (luciferase reporter) [3] | GLP-1R agonist activity EC50 (luciferase reporter) (human GLP-1 receptor [4]) | GCGR agonist activity EC50 (luciferase reporter) (Glucagon receptor [5])
1 | C495 L9F10L9M1 (Fc fusion) HSQGTFTSDYSKYLDEQAAQDFVQWLMNGGPSSGAPPPSGGGGSGGGGSGGGGSESKYGPPCPPCPAPEAAGGPSVFLFPPKPKDTLMISRTPEVTCVVVDVSQEDPEVQFNWYVDGVEVHNAKTKPREEQFASTYRVVSVLTVLHQDWLNGKEYKCKVSNKGLPSSIEKTISKAKGQPREPQVYTLPPSQEEMTKNQVSLTCLVKGFYPSDIAVEWESNGQPENNYKTTPPVLDSDGSFFLYSRLTVDKSRWQEGNVFSCSVMHEALHNHYTQKSLSLSLGGGGGSGGGGSGGGGSHPIPDSSPLLQFGGQVRQRYLYTDDAQQTEAHLEIREDGTVGGAADQSPESLLQLKALKPGVIQILGVKTSRFLCQRPDGALYGSLHFDPEACSFRERLLEDGYNVYQSEAHGLPLHLPGNKSPHRDPAPRGPARFLPLPGLPPALPEPPGILAPQPPDVGSSDPLSMVGGSQGRSPSYES | 1.21 nM | 1.43 nM | 0.84 nM | – | –
2 | C225 L10F10L14M2 (Fc fusion) HSQGTFTSDYSKYLDERAAQDFVQWLMNTGPSSGAPPPSGGGGAGGGGAGGGGAESKYGPPCPPCPAPEAAGGPSVFLFPPKPKDTLMISRTPEVTCVVVDVSQEDPEVQFNWYVDGVEVHNAKTKPREEQFASTYRVVSVLTVLHQDWLNGKEYKCKVSNKGLPSSIEKTISKAKGQPREPQVYTLPPSQEEMTKNQVSLTCLVKGFYPSDIAVEWESNGQPENNYKTTPPVLDSDGSFFLYSRLTVDKSRWQEGNVFSCSVMHEALHNHYTQKSLSLSLGGGGGAGGGGAGGGGASHPIPDSSPLLQFGGQVRQRYLYTDDAQQTEAHLEIREDGTVGGAADQSPESLLQLKALKPGVIQILGVKTSRFLCQRPDGALYGSLHFDPEACSFRERLLEDGYNVYQSEAHGLPLHCPGNKSPHRDPAPRGPCRFLPLPGLPPALPEPPGILAPQPPDVGSSDPLSMVGGSQGRSPSYES | 1.42 nM | 1.17 nM | 0.85 nM | – | –
3 | C788 L1F5L5M5 (Fc fusion) HSQGTFTSDYSKQMDSQRAQDFVQWLMNTKRNRNNIAGGGGSERKCCVECPPCPAPPVAGPSVFLFPPKPKDTLMISRTPEVTCVVVDVSHEDPEVQFNWYVDGVEVHNAKTKPREEQFNSTFRVVSVLTVVHQDWLNGKEYKCKVSNKGLPSSIEKTISKTKGQPREPQVYTLPPSREEMTKNQVSLTCLVKGFYPSDIAVEWESNGQPENNYKTTPPMLDSDGSFFLYSKLTVDKSRWQQGNVFSCSVMHEALHNHYTQKSLSLSPGGGGGSGGGGSHPIPDSSPLLQFGGQVRQRYLYTDDAQQTEAHLEIREDGTVGGAEDQSPESLLQLKALKPGVIQILGVKTSRFLCQRPDGALYGSLHFDPEACSFRERLLEDGYNVYQSEAHGLPLHCPGNKSPHRDPAPRGPCRFLPLPGLPPALPEPPGILAPQPPDVGSSDPLSMVGGSQGRSPSYES | 10.6 nM | 7.64 nM | 0.88 nM | – | –
4 | C462 L10F5L10M3 (Fc fusion) HSQGTFTSDYSKYLDEEAAQDFVQWLMNGGPSSGAPPPSGGGGAGGGGAGGGGAERKCCVECPPCPAPPVAGPSVFLFPPKPKDTLMISRTPEVTCVVVDVSHEDPEVQFNWYVDGVEVHNAKTKPREEQFNSTFRVVSVLTVVHQDWLNGKEYKCKVSNKGLPSSIEKTISKTKGQPREPQVYTLPPSREEMTKNQVSLTCLVKGFYPSDIAVEWESNGQPENNYKTTPPMLDSDGSFFLYSKLTVDKSRWQQGNVFSCSVMHEALHNHYTQKSLSLSPGGGGGAGGGGAGGGGADSSPLLQFGGQVRQRYLYTDDAQQTEAHLEIREDGTVGGAADQSPESLLQLKALKPGVIQILGVKTSRFLCQRPDGALYGSLHFDPEACSFRELLLEDGYNVYQSEAHGLPLHCPGNKSPHRDPAPRGPCRFLPLPGLPPALPEPPGILAPQPPDVGSSDPLAMVGPSQGRSPSYAS | 1.23 nM | 1.22 nM | 1.37 nM | – | –
5 | C627 L12F10L9M6 (Fc fusion) HSQGTFTSDYSKQMDSQRAQDFVQWLMNGGPSSGAPPPSGGGGAGGGGAGGGGAAESKYGPPCPPCPAPEAAGGPSVFLFPPKPKDTLMISRTPEVTCVVVDVSQEDPEVQFNWYVDGVEVHNAKTKPREEQFASTYRVVSVLTVLHQDWLNGKEYKCKVSNKGLPSSIEKTISKAKGQPREPQVYTLPPSQEEMTKNQVSLTCLVKGFYPSDIAVEWESNGQPENNYKTTPPVLDSDGSFFLYSRLTVDKSRWQEGNVFSCSVMHEALHNHYTQKSLSLSLGGGGGSGGGGSGGGGSHPIPDSSPLLQFGGQVRQRYLYTDDAQQTEAHLEIREDGTVGGAADQSPESLLQLKALKPGVIQILGVKTSRFLCQRPDGALYGSLHFDPEACSFRERLLEDGYNVYQSEAHGLPLHCPGNKSPHRDPAPRGPCRFLPLPGLPPALPEPPGILAPQPPDVGSSDPLSMVEPSQGRSPSYAS | 1.48 nM | 1.69 nM | 1.11 nM | – | –
6 | C225L10F10 (Fc fusion) HSQGTFTSDYSKYLDERAAQDFVQWLMNTGPSSGAPPPSGGGGAGGGGAGGGGAESKYGPPCPPCPAPEAAGGPSVFLFPPKPKDTLMISRTPEVTCVVVDVSQEDPEVQFNWYVDGVEVHNAKTKPREEQFASTYRVVSVLTVLHQDWLNGKEYKCKVSNKGLPSSIEKTISKAKGQPREPQVYTLPPSQEEMTKNQVSLTCLVKGFYPSDIAVEWESNGQPENNYKTTPPVLDSDGSFFLYSRLTVDKSRWQEGNVFSCSVMHEALHNHYTQKSLSLSLG | – | – | – | 1.47 nM | 1.39 nM
7 | C711 L13F5L10M4 (Fc fusion) HSQGTFTSDYSKYLDSQAAQDFVQWLMNTKRNRNNIAGGGGSGGGGSGGGGSAERKCCVECPPCPAPPVAGPSVFLFPPKPKDTLMISRTPEVTCVVVDVSHEDPEVQFNWYVDGVEVHNAKTKPREEQFNSTFRVVSVLTVVHQDWLNGKEYKCKVSNKGLPSSIEKTISKTKGQPREPQVYTLPPSREEMTKNQVSLTCLVKGFYPSDIAVEWESNGQPENNYKTTPPMLDSDGSFFLYSKLTVDKSRWQQGNVFSCSVMHEALHNHYTQKSLSLSPGGGGGAGGGGAGGGGAHPIPDSSPLLQFGGQVRQRYLYTDDAQQTEAHLEIREDGTVGGAADQSPESLLQLKALKPGVIQILGVKTSRFLCQRPDGALYGSLHFDPEACSFRERLLEDGYNVYQSEAHGLPLHCPGNKSPHRDPAPRGPCRFLPLPGLPPALPEPPGILAPQPPDVGSSDPLAMVGGSQGRSPSYES | 10.8 nM | 9.55 nM | 0.75 nM | – | –
8 | C240 L13F10L9M2 (Fc fusion) HSQGTFTSDYSKYLDERAAQDFVQWLMNGGPSSGAPPPSGGGGSGGGGSGGGGSAESKYGPPCPPCPAPEAAGGPSVFLFPPKPKDTLMISRTPEVTCVVVDVSQEDPEVQFNWYVDGVEVHNAKTKPREEQFASTYRVVSVLTVLHQDWLNGKEYKCKVSNKGLPSSIEKTISKAKGQPREPQVYTLPPSQEEMTKNQVSLTCLVKGFYPSDIAVEWESNGQPENNYKTTPPVLDSDGSFFLYSRLTVDKSRWQEGNVFSCSVMHEALHNHYTQKSLSLSLGGGGGSGGGGSGGGGSHPIPDSSPLLQFGGQVRQRYLYTDDAQQTEAHLEIREDGTVGGAADQSPESLLQLKALKPGVIQILGVKTSRFLCQRPDGALYGSLHFDPEACSFRERLLEDGYNVYQSEAHGLPLHCPGNKSPHRDPAPRGPCRFLPLPGLPPALPEPPGILAPQPPDVGSSDPLSMVGGSQGRSPSYES | 1.21 nM | 1.25 nM | 0.89 nM | – | –
9 | C462 L13F10L9M4 (Fc fusion) HSQGTFTSDYSKYLDEEAAQDFVQWLMNGGPSSGAPPPSGGGGSGGGGSGGGGSAESKYGPPCPPCPAPEAAGGPSVFLFPPKPKDTLMISRTPEVTCVVVDVSQEDPEVQFNWYVDGVEVHNAKTKPREEQFASTYRVVSVLTVLHQDWLNGKEYKCKVSNKGLPSSIEKTISKAKGQPREPQVYTLPPSQEEMTKNQVSLTCLVKGFYPSDIAVEWESNGQPENNYKTTPPVLDSDGSFFLYSRLTVDKSRWQEGNVFSCSVMHEALHNHYTQKSLSLSLGGGGGSGGGGSGGGGSHPIPDSSPLLQFGGQVRQRYLYTDDAQQTEAHLEIREDGTVGGAADQSPESLLQLKALKPGVIQILGVKTSRFLCQRPDGALYGSLHFDPEACSFRERLLEDGYNVYQSEAHGLPLHCPGNKSPHRDPAPRGPCRFLPLPGLPPALPEPPGILAPQPPDVGSSDPLAMVGGSQGRSPSYES | 1.11 nM | 1.23 nM | 1.33 nM | – | –
10 | C382 L13F10L9M1 (Fc fusion) HSQGTFTSDYSKYLDSQAAQDFVQWLMNGGPSSGAPPPSGGGGSGGGGSGGGGSAESKYGPPCPPCPAPEAAGGPSVFLFPPKPKDTLMISRTPEVTCVVVDVSQEDPEVQFNWYVDGVEVHNAKTKPREEQFASTYRVVSVLTVLHQDWLNGKEYKCKVSNKGLPSSIEKTISKAKGQPREPQVYTLPPSQEEMTKNQVSLTCLVKGFYPSDIAVEWESNGQPENNYKTTPPVLDSDGSFFLYSRLTVDKSRWQEGNVFSCSVMHEALHNHYTQKSLSLSLGGGGGSGGGGSGGGGSHPIPDSSPLLQFGGQVRQRYLYTDDAQQTEAHLEIREDGTVGGAADQSPESLLQLKALKPGVIQILGVKTSRFLCQRPDGALYGSLHFDPEACSFRERLLEDGYNVYQSEAHGLPLHLPGNKSPHRDPAPRGPARFLPLPGLPPALPEPPGILAPQPPDVGSSDPLSMVGGSQGRSPSYES | 1.13 nM | 1.27 nM | 0.76 nM | – | –
11 | C227 L12F5L14M4 (Fc fusion) HSQGTFTSDYSKYLDSQAAQDFVQWLMNTGPSSGAPPSGGGGAGGGGAGGGGAAERKCCVECPPCPAPPVAGPSVFLFPPKPKDTLMISRTPEVTCVVVDVSHEDPEVQFNWYVDGVEVHNAKTKPREEQFNSTFRVVSVLTVVHQDWLNGKEYKCKVSNKGLPSSIEKTISKTKGQPREPQVYTLPPSREEMTKNQVSLTCLVKGFYPSDIAVEWESNGQPENNYKTTPPMLDSDGSFFLYSKLTVDKSRWQQGNVFSCSVMHEALHNHYTQKSLSLSPGGGGGAGGGGAGGGGASHPIPDSSPLLQFGGQVRQRYLYTDDAQQTEAHLEIREDGTVGGAADQSPESLLQLKALKPGVIQILGVKTSRFLCQRPDGALYGSLHFDPEACSFRERLLEDGYNVYQSEAHGLPLHCPGNKSPHRDPAPRGPCRFLPLPGLPPALPEPPGILAPQPPDVGSSDPLAMVGGSQGRSPSYES | 1.55 nM | 1.38 nM | 0.71 nM | – | –
